The target of the data set is PARP (poly(ADP-ribose) polymerase), purified (Homo sapiens, UniProt P09874 P09874:2-1014). Description: EMSA; 10 ng PARP; retarded band at position different from nuclear extract complex; room temperature, 2 mM MgCl2, 50 mM NaCl. The following applies: tags: Trevigen Inc; label: 32P. The method, then: Biophys. Acta, 1219, 241-243) and stored at −80° C. until use. GMSA was performed by the method of Garabedian (Garabedian, M. J. et al. Analysis of protein—DNA interactions in Gene Transcription: A practical approach (Hamesm, B. D., and Higgins, S. J. eds.), pp. 243-293, IRL Press, Oxford (1993)). The nuclear extract (10 μg) was incubated in a final volume of 20 μl of buffer containing 20 mM Tris-HCl (pH 7.9), 2 mM MgCl₂, 50 mM NaCl, 2 mM EDTA, 10% glycerol, 0.1% Nonidet P-40, 1 mM DTT, 50 μg/ml bovine serum albumin and 1 μg of poly(dI-dC). After incubation for 10 min at room temperature, 2.5 pmol of double-stranded DNA, previously labeled by an exchange reaction using MEGALABEL™ (Takara Shuzo) and [γ-³²P]ATP (Amersham Pharmacia Biotech), were added and incubated for 30 min at room temperature, then the binding reactions were resolved on pre-run 6% acrylamide gel. When competition experiments were conducted in the presence of 100-fold molar excess of cold probe, an unlabeled competitor was added with the labeled probe. In the supershift assay, 2 μg of anti-Sp1, -Sp2, -Sp3 or -Sp4 antibody (Santa Cruz) were added prior to the addition of the ³²P-probe. […] DNA was detected by immunoblot using an ECL 3′-oligolabelling and detection system (Amersham Pharmacia Biotech). […]
(Mobility shift assays separate free from complexed probe on a gel.)

Experimental findings from patent publication US20040091453, “Pancreatic langerhans beta cell proliferation promoter and apoptosis inhibitor, and screening of candidate compounds for the e drugs” (published 2004) are described below.

PARP (poly(ADP-ribose) polymerase), purified, sequence (P09874 2-1014, one chain of several): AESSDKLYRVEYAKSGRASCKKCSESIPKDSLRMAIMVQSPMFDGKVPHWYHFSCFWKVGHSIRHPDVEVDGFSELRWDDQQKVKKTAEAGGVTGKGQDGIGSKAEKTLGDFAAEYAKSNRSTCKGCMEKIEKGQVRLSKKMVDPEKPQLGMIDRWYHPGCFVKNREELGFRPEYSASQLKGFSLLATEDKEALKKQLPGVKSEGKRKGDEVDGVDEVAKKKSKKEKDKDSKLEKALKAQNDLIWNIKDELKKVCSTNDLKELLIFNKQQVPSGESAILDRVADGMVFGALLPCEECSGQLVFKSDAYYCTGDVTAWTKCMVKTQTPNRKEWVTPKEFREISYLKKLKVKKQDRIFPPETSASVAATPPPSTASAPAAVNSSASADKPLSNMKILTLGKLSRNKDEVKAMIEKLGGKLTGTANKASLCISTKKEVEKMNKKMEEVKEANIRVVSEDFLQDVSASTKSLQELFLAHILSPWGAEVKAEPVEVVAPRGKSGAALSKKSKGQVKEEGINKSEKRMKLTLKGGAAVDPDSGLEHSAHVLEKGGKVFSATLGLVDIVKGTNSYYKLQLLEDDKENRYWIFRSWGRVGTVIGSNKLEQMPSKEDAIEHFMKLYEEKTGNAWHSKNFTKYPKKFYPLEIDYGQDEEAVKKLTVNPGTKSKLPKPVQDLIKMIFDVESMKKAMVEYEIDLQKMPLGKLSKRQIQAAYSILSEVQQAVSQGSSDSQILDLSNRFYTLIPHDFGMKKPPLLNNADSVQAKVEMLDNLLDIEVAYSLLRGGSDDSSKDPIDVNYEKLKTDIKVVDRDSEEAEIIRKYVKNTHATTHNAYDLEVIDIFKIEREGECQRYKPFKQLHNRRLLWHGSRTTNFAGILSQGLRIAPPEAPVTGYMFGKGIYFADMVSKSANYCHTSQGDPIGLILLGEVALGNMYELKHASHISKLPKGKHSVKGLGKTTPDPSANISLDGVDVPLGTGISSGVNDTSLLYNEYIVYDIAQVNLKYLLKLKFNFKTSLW

B1: Probe 1 (rat Reg -86 to -65) (dsDNA)
DNA 1: TTCCTTGCCCCTCCCATTTTTC
DNA 2: GAAAAATGGGAGGGGCAAGGAA
As for B1, the binding result is listed as “binds”.
